# From patent US20190160187A1 (CORNELL UNIVERSITY, published 2019)
# B1: human ALDH2 with C-terminal hemagglutinin (HA) tag, expressed from the AAVrh.10hALDH2 vector (enzyme)
# chain: SAAATQAVPAPNQQPEVFCNQIFINNEWHDAVSRKTFPTVNPSTGEVICQVAEGDKEDVDKAVKAARAAFQLGSPWRRMDASHRGRLLNRLADLIERDRTYLAALETLDNGKPYVISYLVDLDMVLKCLRYYAGWADKYHGKTIPIDGDFFSYTRHEPVGVCGQIIPWNFPLLMQAWKLGPALATGNVVVMKVAEQTPLTALYVANLIKEAGFPPGVVNIVPGFGPTAGAAIASHEDVDKVAFTGSTEIGRVIQVAAGSSNLKRVTLELGGKSPNIIMSDADMDWAVEQAHFALFFNQGQCCCAGSRTFVQEDIYDEFVERSVARAKSRVVGNPFDSKTEQGPQVDETQFKKILGYINTGKQEGAKLLCGGGIAADRGYFIQPTVFGDVQDGMTIAKEEIFGPVMQILKFKTIEEVVGRANNSTYGLAAAVFTKDLDKANYLSQALQAGTVWVNCYDVFGAQSPFGGYKMSGSGRELGEYGLQAYTEVKTVTVKVPQKNS
# notes: also called human aldehyde dehydrogenase 2; hALDH2-HA; not shown: C-terminal hemagglutinin (HA) tag
# Target: the molecule itself
# Assay: Western blot, HEK 293T-orf6 cells (self-association into a homotetramer)
# Protocol: To assess ALDH2 tetramer formation from AAVrh.10hALDH2 directed expression of the human ALDH2 protein in vitro, HEK 293T cells were infected with the AAVrh.10hALDH2 vector or a control AAVrh.10-hα1 AT vector, and supernatant was harvested 72 hours later. Human ALDH2 tetramer formation in supernatant was evaluated by SDS-PAGE and Western analysis with an anti-HA antibody.
protein,measurement,value
B1,binding result,binds
